From US20260061072A1

Biological target: Human Leukocyte Antigen (HLA) on the surface of human cells (human)
Experiment: cell-based or functional assay

Question: “anti-HLA monoclonal antibody clone W6/32 (mouse, ThermoFisher)” was tested. Which antibody concentration of highest luciferase transduction of SKBR3 cells did it give?
Answer: 10 µg/mL
